Holding throughout (type): cell-based, human
The subject of experiment [1] is TACE (Ser435), PS2 (Ser327), ERK1/2. Nature of the experiment: Western blotting of phosphorylation of TACE, Presenilin 2 and ERK1/2. Here is the method: FIG. 9. EpEX induces the phosphorylation and activity of TACE and γ-secretase. MSCs were stimulated by EpEX for the indicated times, and the activity of TACE and γ-secretase were detected. MSCs were stimulated by EpEX (3 μg/mL) for the indicated times. Western blot analysis was performed to detect the phosphorylation of TACE and Presenilin 2.
FIG. 10. EpEX and EGF induce the phosphorylation of TACE, ERK1/2 and PS2. MSCs were treated with either EGF, EpEX, or co-treated with EGF and EpEX for 5 min. The phosphorylation of ERK1/2 was examined by Western blotting with specific antibodies. […] The phosphorylation of ERK1/2, TACE (Ser435), PS2 (Ser327) were examined by Western blotting with specific antibodies.
Western blotting was performed as previously described (Takahashi et al., 2003). Cells were lysed in lysis buffer (150 mM NaCl, 50 mM Tris-HCl (pH 7.4), 1% Nonidet P-40), containing a protease inhibitor mix (Roche Applied Science). Nuclear fractions and cytoplasmic fractions were separated by the Nuclear/Cytosol Fractionation Kit according to the manufacturer's instructions (BioVision Inc., Milpitas, CA, USA). Protein samples were separated by SDS-PAGE under denaturing conditions, and transferred to a PVDF membrane (Millipore). To probe for pluripotency markers, membranes were incubated with the indicated antibodies against Oct4 (1:1000, Abcam, Cambridge, UK), Nanog (1:1000, Genetex), Lin28 (1:1000, Genetex) or Sox2 (1:1000, Genetex). The CDK and cyclin antibodies were from the CDK and Cyclin Antibody Sampler Kits (Cell Signalling Technology, #9868 and #9869 respectively), including antibodies against cylin D1, D2, E1, and CDK4, CDK9 (1:1000). EpCAM (1:1000, Genetex), phospho-EGFR (1:1000, Cell signaling), EGFR (1:1000, Cell signaling), HMGA2 (1:1000, Cell signaling) or GAPDH (1:10000, Abcam) were also used. After incubation with primary antibody, the membranes were incubated with horseradish peroxidase (HRP)-conjugated secondary antibodies, goat anti-mouse IgG (1:3000, Santa Cruz, CA) or goat anti-rabbit IgG (1:3000, Santa Cruz, CA). […]

The subject of experiment [2] is let-7. Kind of experiment: let-7 expression by qPCR. Particulars: EpEX 3 μg/mL. The source says:
The expression of let-7 was detected by qPCR. MSCs expressing EGFR shRNA, STAT3 shRNA or Lin28b shRNA were stimulated with EpEX. The expression of let-7 was detected by qPCR. […] Expression of pluripotency factors (Oct4, Sox2, c-Myc and Lin28) was examined by qPCR. MSCs were transfected with a let-7 mimetic, and then stimulated with EpEX. Protein levels of pluripotency factors (Oct4, Sox2, c-Myc, and Lin28) were examined by Western blotting.
Total RNA was extracted using TRI reagent (Invitrogen, CA, USA), and 5 μg of total RNA was reverse transcribed using oligo (dT) primer (Fermentas, Glen Burnie, MD, USA) with SuperScript III reverse transcriptase (Invitrogen). Quantitative real time RT-PCR (qPCR) was performed on cDNA using the Light Cycler 480 SYBR Green I Master kit (Roche Applied Science, Indianapolis, IN) and the LightCycler480 System (Roche Applied Science). The gene expression levels of each sample were normalized to the expression levels of glyceraldehyde 3-phosphate dehydrogenase (GAPDH).
Background: Real-time PCR tracks product formation cycle by cycle.

Experiment [3] concerns RUNX2. Nature of the experiment: RUNX2 gene expression by qPCR during osteo-induction. The conditions noted are these: EpEX in osteogenetic medium. The procedure:
Calcium precipitation was measured by Alizarin Red S (ARS) staining to probe the efficiency of osteogenesis. […] Quantification of osteogenesis, as measured by ARS staining, is shown for each group. MSCs were induced by osteogenetic medium and treated with EpEX at indicated doses. The gene expression of RUNX2 was examined by qPCR. […] ARS staining was performed to check the efficiency of osteogenesis. MSCs were pretreated with let-7 inhibitor and then treated with EpEX for 14 days during osteo-induction. ARS staining was performed to check the efficiency of osteogenesis. […] RUNX2 gene expression was measured by qPCR. MSCs were pretreated with let-7 inhibitor and induced by EpEX. RUNX2 gene expression was examined by qPCR. […] Upon EpEX stimulation, phosphorylation of EGFR-STAT3 signaling is induced and subsequently upregulates the level of Lin28 which inhibits let-7. […]
Total RNA was extracted using TRI reagent (Invitrogen, CA, USA), and 5 μg of total RNA was reverse transcribed using oligo (dT) primer (Fermentas, Glen Burnie, MD, USA) with SuperScript III reverse transcriptase (Invitrogen). Quantitative real time RT-PCR (qPCR) was performed on cDNA using the Light Cycler 480 SYBR Green I Master kit (Roche Applied Science, Indianapolis, IN) and the LightCycler480 System (Roche Applied Science). […]

B1: EpEX: extracellular domain of human EpCAM, 265 amino acids in length (SEQ ID NO: 2) (protein, listed as Homo sapiens)
chain: MAPPQVLAFGLLLAAATATFAAAQEECVCENYKLAVNCFVNNNRQCQCTSVGAQNTVICSKLAAKCLVMKAEMNGSKLGRRAKPEGALQNNDGLYDPDCDESGLFKAKQCNGTSMCWCVNTAGVRRTDKDTEITCSERVRTYWIIIELKHKAREKPYDSKSLRTALQKEITTRYQLDPKFITSILYENNVITIDLVQNSSQKTQNDVDIADVAYYFEKDVKGESLFHSKKMDLTVNGEQLDLDPGQTLIYYVDEKAPEFSMQGLK
As to B1, in experiment [1] (EpEX 3 μg/mL), the “phosphorylation of TACE” value is recorded as “induced” and the “phosphorylation of γ-secretase (Presenilin 2)” value is recorded as “induced”. In experiment [1] (EpEX, EGFR-dependent), the “phosphorylation of ERK1/2” value was “can induce”. Further, the “level of let-7” value in experiment [2] is reported as “decreased”. Further, the RUNX2 transcript level result in experiment [3] is “increased”.

The record behind these values is patent US20260125649A1, “MEDIUM COMPOSITION AND METHOD FOR CULTURING MESENCHYMAL STEM CELLS” (ACADEMIA SINICA, priority 2018, published 2026).
